From PMC9812398
Each block holds one molecule with its values, some of them ahead of it.

Legend:
[1] = biological target: human full-length GFP-CLASP2α (human) (UniProt O75122); assay: TIRF microscopy of microtubules on DNA origami-clustered protein
[2] = biological target: stabilized microtubules polymerized from cow brain tubulin (cow) (UniProt Q6B856); assay: TIRF microscopy of microtubule end decoration

time for which half of the microtubules keep end association [1]: 4 h
Molecule: stabilized microtubules polymerized from cow brain tubulin (from UniProt Q6B856 1-445) (complex)

end brightness [2]: 594 a.u.
Molecule: human full-length GFP-CLASP2α (from UniProt O75122-3 1-1515) (natural protein)

end brightness [2]: 757 a.u.
B1: GFP-L-TOG2-S (domain or fragment)
chain: KVPAPKTSGNPANSARKPGSAGGPKVGAGASKEGGAGAVDEDDFIKAFTDVPSIQIYSSRELEETLNKIREILSDDKHDWDQRANALKKIRSLLVAGAAQYDCFFQHLRLLDGALKLSAKDLRSQVVREACITVAHLSTVLGNKFDHGAEAIVPTLFNLVPNSAKVMATSGCAAIRFIIRHTHVPRLIPLITSNCTSKSVPVRRRSFEFLDLLLQEWQTHSLERHAAVLVETIKKGIHDADAEARVEARKTYMGLRNHFPGEAETLYNSLEPSYQKSLQTYLKSSGSVASLPQSDRSSSSSQESLNRPFSSKWSTANPSTVAGRVSAGSSKASSLPGSLQRSRSDIDVNAAAGAKAHHAAGQSVRSGRLGAGALNAGSYASLEDTSDKLDGTASEDGRVRAKLSAPLAGMGNAKADSRGRSRTKMVSQSQPGSRSGSPGRVLTTTALSTVSSGVQRVLVNSASAQKRSKIPRSQGCSREASPSRLSVARSSRIPRPSVSQGCSREASRESSRDTSPVRSFQPLGPGYGISQSS
